Assay results as given in the supplement of paper PMC10724198.
± gives the standard deviation of the averaged measurements.

System: Saccharomyces cerevisiae
Experiment: protein stability index of tFT-peptide fusion (C-terminal peptide) (PSI (0-1 scale)); higher = more stable (slower turnover)
Details: genetic background: wild type; temperature: 30 C
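Also: PSI is a weighted mean of sequencing reads over stability bins, variants kept only with over 10 reads, mCherry proximal and sfGFP distal, peptide attached via GGGS linker.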

Row | Sequence | protein stability index
1 | SLFFSTVELFFV | 0.6707 ± 0.0053
2 | SLFPQIFFFFFA | 0.498 ± 0.0099
3 | SLFSPSQLQSFS | 0.718 ± 0.012
4 | SLGRLKSLRSAR | 0.685 ± 0.017
5 | SLGSTHRWPPVV | 0.6272 ± 0.0019
6 | SLKPHTCPPRPA | 0.57 ± 0.15
7 | SLLAVITSFPLR | 0.687 ± 0.012
8 | SLLGFAGSCLLG | 0.735 ± 0.1
9 | SLLPLHPPLTLP | 0.674 ± 0.19
10 | SLLPLSLLSSPF | 0.664 ± 0.0072
11 | SLLSSSALTASP | 0.65 ± 0.043
12 | SLLTQSPLLPPP | 0.777 ± 0.29
13 | SLNLFFYVNPRF | 0.686 ± 0.06
14 | SLPGAPSPPHPL | 0.744 ± 0.0095
15 | SLPPFPLHSFPV | 0.694 ± 0.24
16 | SLPPPPSPVSLF | 0.611 ± 0.07
17 | SLPPPRSLSFPF | 0.673 ± 0.011
18 | SLPRPPVPLLPS | 0.707 ± 0.017
19 | SLPRYPRRASHS | 0.757 ± 0.068
20 | SLPTPPLFPSFP | 0.731 ± 0.014
21 | SLQGLLSIVNYR | 0.78 ± 0.15
22 | SLQRLALLRGPP | 0.736 ± 0.05
23 | SLREEATLVRAR | 0.563 ± 0.019

Row | Sequence | protein stability index
24 | SLRMTVFTAPLS | 0.654 ± 0.007
25 | SLSDGGPSCPGV | 0.677 ± 0.032
26 | SLSFPPNTFSFP | 0.738 ± 0.059
27 | SLSFTFPLAPLL | 0.643 ± 0.12
28 | SLSLSFVLSSCS | 0.721 ± 0.014
29 | SLSPLPCTVLRL | 0.684 ± 0.05
30 | SLSPWRLPIGGR | 0.734 ± 0.035
31 | SLSQWTSPGLNI | 0.708 ± 0.091
32 | SLSSVAYAIIIL | 0.561 ± 0.021
33 | SLTYSDGCTKSI | 0.742 ± 0.043
34 | SLVLFRSCSFFS | 0.669 ± 0.024
35 | SLVLPIFRIVSF | 0.573 ± 0.039
36 | SLWIKRSPVFSF | 0.563 ± 0.014
37 | SLWTDGYIFVLE | 0.732 ± 0.016
38 | SLYRKTLCMAYS | 0.558 ± 0.019
39 | SMAFLNQRPGIL | 0.685 ± 0.017
40 | SMGGDTFILFAV | 0.67 ± 0.023
41 | SNAIKTEESKGE | 0.734 ± 0.023
42 | SNCARGNREFYW | 0.733 ± 0.058
43 | SNCRLCGFGYVE | 0.6966 ± 0.0062
44 | SNLHCLQRGYSV | 0.725 ± 0.011
45 | SNLLKQHKDLFL | 0.7162 ± 0.0027
46 | SNRQDHACGGSA | 0.687 ± 0.11

Row | Sequence | protein stability index
47 | SNTSRIQGGWLK | 0.699 ± 0.18
48 | SPANLGFKHSGR | 0.674 ± 0.021
49 | SPAPALFCPARF | 0.739 ± 0.022
50 | SPAPPPPVTPPL | 0.662 ± 0.013
51 | SPAPRPSPVPGL | 0.686 ± 0.015
52 | SPARLHLPPFSP | 0.717 ± 0.016
53 | SPASPNALPAAP | 0.741 ± 0.046
54 | SPCMLLAVPHRL | 0.728 ± 0.044
55 | SPCTSPARLKLP | 0.559 ± 0.063
56 | SPEGYLLSPRCT | 0.737 ± 0.049
57 | SPFLFPRTVVGA | 0.671 ± 0.11
58 | SPFLPAHPPPTA | 0.714 ± 0.065
59 | SPFLTPSSHPPS | 0.681 ± 0.03
60 | SPGFSPPFPPLS | 0.776 ± 0.011
61 | SPGLLPLALFSL | 0.678 ± 0.14
62 | SPGPTLLSPPSP | 0.691 ± 0.017
63 | SPGSSPPLLSPH | 0.761 ± 0.013
64 | SPHPLPRPTTRP | 0.708 ± 0.12
65 | SPHPPPSRLPPP | 0.709 ± 0.029
66 | SPHPPPSSPPPP | 0.674 ± 0.097
67 | SPHPTAPFVSTL | 0.68 ± 0.087
68 | SPHVAPRKLQVS | 0.56147 ± 0.00038
69 | SPLGAHPTRIVF | 0.6915 ± 0.00071

Row | Sequence | protein stability index
70 | SPLHASLPPVSL | 0.704 ± 0.025
71 | SPLISYQPPTDP | 0.725 ± 0.061
72 | SPLLLSSPRPSP | 0.735 ± 0.062
73 | SPLPLASPFGFP | 0.719 ± 0.033
74 | SPLPPPPAPFLP | 0.6762 ± 0.0028
75 | SPLPPPTPLPLV | 0.8075 ± 0.0021
76 | SPLPPSPPPLLF | 0.762 ± 0.17
77 | SPLSDPPPYRPP | 0.591 ± 0.028
78 | SPLTTFPPHRVS | 0.711 ± 0.014
79 | SPPAPPLALPPP | 0.737 ± 0.057
80 | SPPASFPLPPPP | 0.6802 ± 0.0015
81 | SPPCPFPTPACP | 0.7165 ± 0.002
82 | SPPCPLPLPPPP | 0.626 ± 0.057
83 | SPPGPLPPRRPF | 0.725 ± 0.074
84 | SPPHTGMLRLLT | 0.7 ± 0.063
85 | SPPLPARSQSSI | 0.708 ± 0.029
86 | SPPLPSPPTLRL | 0.701 ± 0.015
87 | SPPLRPPAPLVL | 0.631 ± 0.14
88 | SPPPAPPPPPQT | 0.66492 ± 0.00031
89 | SPPPAPRPPLPP | 0.709 ± 0.041
90 | SPPPFPHPHQLP | 0.726 ± 0.029
91 | SPPPILPSSPSS | 0.698 ± 0.087
92 | SPPPLDSFPFIT | 0.659 ± 0.051

Row | Sequence | protein stability index
93 | SPPPLHPPPPAL | 0.637 ± 0.046
94 | SPPPMPLPLIPL | 0.663 ± 0.066
95 | SPPPPGPLPPPS | 0.718 ± 0.038
96 | SPPPPILPCKPL | 0.716 ± 0.031
97 | SPPPPPFCPLPA | 0.646 ± 0.014
98 | SPPPPPPSYPAH | 0.772 ± 0.051
99 | SPPPPTLPPAYL | 0.6577 ± 0.0025
100 | SPPPPTPPPPPA | 0.718 ± 0.045
101 | SPPPSRHPPPRL | 0.708 ± 0.016
102 | SPPRLPPLAAPP | 0.676 ± 0.07
103 | SPPRPPRPPRRA | 0.599 ± 0.02
104 | SPPRSPPDFVPF | 0.684 ± 0.0088
105 | SPPRSVSVGVHK | 0.637 ± 0.03
106 | SPPSPAFTPAPF | 0.669 ± 0.077
107 | SPPTRAPISSIS | 0.733 ± 0.0087
108 | SPPVRLPSASTV | 0.681 ± 0.036
109 | SPPVTASLCLFS | 0.692 ± 0.016
110 | SPRFVPPPAILR | 0.558 ± 0.0088
111 | SPRFYSFRPSPP | 0.695 ± 0.019
112 | SPRGLQSAPSGI | 0.7399 ± 0.0057
113 | SPRPAPPRSTPP | 0.67 ± 0.063
114 | SPSAVPPALLYS | 0.747 ± 0.2
115 | SPSGLPLHFSFL | 0.704 ± 0.012

Row | Sequence | protein stability index
116 | SPSLPPLPRSPR | 0.68 ± 0.053
117 | SPSPPLPSPRPP | 0.594 ± 0.094
118 | SPSRPILRPRVV | 0.635 ± 0.02
119 | SPTPSPCIPSPP | 0.701 ± 0.0089
120 | SPTRALYISFFY | 0.655 ± 0.075
121 | SPYLGSALPPDR | 0.628 ± 0.07
122 | SQCGSLQIGRHL | 0.714 ± 0.052
123 | SQLERSNHGWVR | 0.651 ± 0.064
124 | SQMGRGRQRGDR | 0.741 ± 0.024
125 | SQSPPTSPAPHD | 0.706 ± 0.016
126 | SQTIRTGGLCHL | 0.886 ± 0.041
127 | SQWGRVTMNLCG | 0.706 ± 0.012
128 | SRAARLPLFYFD | 0.675 ± 0.014
129 | SRCSAGVASGVL | 0.636 ± 0.0069
130 | SRCSEPVGGGGA | 0.704 ± 0.085
131 | SRGAIGGSACFR | 0.652 ± 0.037
132 | SRGRILAVRNTT | 0.713 ± 0.021
133 | SRGSTGERGRGK | 0.669 ± 0.027
134 | SRIASKNRKRKR | 0.774 ± 0.024
135 | SRKKDEGEYHRK | 0.68 ± 0.036
136 | SRLPSPFPSPPL | 0.737 ± 0.019
137 | SRLRITIRNVHS | 0.629 ± 0.048
138 | SRPFLPPSPRPA | 0.757 ± 0.11

Row | Sequence | protein stability index
139 | SRPLLLLPCLLP | 0.643 ± 0.014
140 | SRPLPPPLPPPP | 0.628 ± 0.025
141 | SRPPSPHPLPPP | 0.656 ± 0.027
142 | SRRERALGQQPI | 0.679 ± 0.011
143 | SRRLAFSTVLPA | 0.664 ± 0.035
144 | SRRWRPDSSRIQ | 0.667 ± 0.1
145 | SRSHSPLCPSFA | 0.604 ± 0.026
146 | SRTLYSHLLFFP | 0.66 ± 0.0097
147 | SRTPLASTPPHR | 0.761 ± 0.11
148 | SRTSRGPPFSSS | 0.688 ± 0.043
149 | SRVEVEVKIGFQ | 0.6331 ± 0.0061
150 | SRVIFSQSLSVP | 0.654 ± 0.038
151 | SRVRTIVRNGSR | 0.777 ± 0.11
152 | SRVSRGEWGVGI | 0.659 ± 0.023
153 | SRVVTSRLVLSS | 0.606 ± 0.017
154 | SRVWVGQMIRGR | 0.664 ± 0.019
155 | SSERVLVRRRGS | 0.566 ± 0.12
156 | SSFGIVWKKDAI | 0.736 ± 0.053
157 | SSGAIKPDFRMA | 0.7446 ± 0.005
158 | SSGSRCQQKIRY | 0.66 ± 0.11
159 | SSLGNSFYLSPH | 0.683 ± 0.033
160 | SSLPRLGSSPRR | 0.66 ± 0.019
